Source: patent US20100322948A1, “Bone morphogenetic protein (BMP)-binding domains of proteins of the repulsive guidance molecule (RGM) protein family and functional fragments thereof, and use of same” (ABBOTT GMBH & CO. KG, priority 2007, published 2010)
Entries after “also recorded” stand apart in the source; their conditions may differ.

What was measured:
BMP-2 = molecular target: T1, BMP-2 (Homo sapiens, UniProt P12643); assay: In vitro interaction test, variant B: immobilized RGMA-Fc fusion proteins, detection of BMP-2 binding; conditions: Working Example 2, FIG. 4, anti-BMP-2 biotin antibodies
T1 construct: purchased R&D Systems 355-BM; host or cells: CHO cells (said of #355-BM in the BRE-Luc section)
T1 sequence (P12643 283-396): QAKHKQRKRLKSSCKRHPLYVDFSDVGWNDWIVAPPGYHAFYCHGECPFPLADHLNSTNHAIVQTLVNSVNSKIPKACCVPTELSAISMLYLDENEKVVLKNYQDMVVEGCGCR
Procedure: (§1) Test Method 4: In Vitro Interaction Test for Determining the Interaction between RGMA and BMP-2 and -4
(§2) The interaction tests were carried out as described below:
Variant B: Immobilization of Various RGMA-Fc Fusion Proteins and Detection of the Binding of the BMP-2/ or -4 Protein
Immunoplate Cert. MaxiSorp F96 (Nunc, 439454)
RGMA-Fc fragments • Volume used: 2.5 μg/mL in Na2CO3; addition: 50 μL per well • 1 hour at 37° C. in damp chamber
3. Washing step: • Wash 3× with PBS/0.02% Tween 20
4. Blocking: • 3% BSA in PBS/0.02% Tween, 1 hour at 37° C. in damp chamber • Addition : 200 μL per well, incubation: 1 hour at 37° C. in damp chamber
Recombinant human BMP-2, Catalog No.: 355-BM, Company: R&D Systems; or
Recombinant human RGM A, R&D Systems; Prod. #2495-RM,
recombinant human BMP-4, Catalog No.: 314-BM, Company: R&D Systems;
Concentration in each case: 10 μg/mL
Dilution steps: in each case 1:2 with PBS/0.02% Tween 20
(§3) 6. Washing step: • Wash 3× with PBS/0.02% Tween 20
Anti-human BMP-4 biotin antibody; Catalog No.: BAM7572, 1:200 in 1% BSA-PBS-T
8. Washing step: • Wash 3× with PBS/0.02% Tween 20
10. Washing step: • Wash 3× with PBS/0.02% Tween 20 […]
The test was conducted according to test method 4, variant B above, with immobilization of the fusion proteins (1 mg/mL). The binding of BMP-4 and -2 was detected using anti-BMP-4 and anti-BMP-2 biotin antibodies, respectively.

BMP-4 = molecular target: T2, BMP-4 (Homo sapiens, UniProt P12644); assay: In vitro interaction test, variant A: immobilized BMP-4, detection of binding of RGMA-Fc fusion proteins; conditions: Working Example 3, FIG. 5
T2 construct: purchased R&D Systems 314-BM
T2 sequence (P12644 293-408): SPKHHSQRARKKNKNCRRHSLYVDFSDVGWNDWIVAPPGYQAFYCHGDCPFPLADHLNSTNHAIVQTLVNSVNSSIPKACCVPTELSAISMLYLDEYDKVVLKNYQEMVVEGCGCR
Procedure: as §1, §2
Variant A: Immobilization of the BMP-2/ or -4 Protein and Detection of the Binding of Various RGMA-Fc Fusion Proteins
1. Plate: • Immunoplate Cert. MaxiSorp F96 (Nunc, 439454)
Recombinant human BMP-2, Catalog No.: 355-BM, Company: R&D Systems; Recombinant human RGM A, R&D Systems; Prod. #2495-RM, or
Recombinant human BMP-4, Catalog No.: 314-BM, Company: R&D Systems; • Concentration: 10 μg/mL • Volume used: 2.5 μg/mL in Na2CO3; addition: 50 μL per well • 1 hour at 37° C. in damp chamber
3. Washing step: • Wash 3× with PBS/[…] Tween 20
4. Blocking: • 3% BSA in PBS/0.02% Tween, 1 hour at 37° C. in damp chamber; addition: 200 μL per well
RGMA-Fc fragments, • 1 μg/mL initial concentration, then dilution down to 1:2 using PBS/0.02% Tween20 • […] • 1 hour at 37° C. in damp chamber
as §3
Biotin anti-human Fc (R&D-Systems), Catalog No.: 709065; 1 mg/mL; • 1:200 in 0.6% BAS/PBS-T (0.02% Tween) • Addition: 50 μL per well • 1 hour at 37° C. in damp chamber
8. Secondary antibody: Strep. POD (Roche); Catalog No.: 11089153001 • 500 U; 1:5000 in 0.6% BAS/PBS-T (0.02% Tween) • Addition: 50 μL per well • 1 hour at 37° C. in damp chamber
9. Washing step: • Wash 3× with PBS/0.02% Tween 20
ImmunoPure TMB substrate kit; Pierce, #34021 • Development period: approximately 1-30 minutes • 1:1 mixture of […]; addition: 50 μL per well
11. Stop: • 2.5 M H2SO4; addition: 50 μL per well
The test was conducted according to test method 4, variant A above, with immobilization of BMP-4 (1 mg/mL). The binding of the fusion proteins was detected using anti-human-Fc or anti-Myc anti-rabbit (Invitrogen) antibodies.
The test was conducted according to test method 4, variant A above, with immobilization of BMP-4 (1 mg/mL). The binding of the fusion proteins was detected using anti-human-antibodies.

[1] = tested on: BMP signalling (rhBMP-2-induced luciferase activity); assay: BRE-Luc assay on BMP signalling in BMP-responsive C3H10-B12 cells; assay type: cell-based
Procedure: Evaluation of the Agonistic or Antagonistic Effect of h RMG A on BMP Signalling using BRE-Luc Assay
a) Materials: • Three compounds were provided at 200 μg/ml.
fragment #788 (IgK/hRGM A 47-422/Xa cleavage site/Fc) • recombinant h BMP-2 (from CHO cells; #355-BM) and monoclonal anti-human BMP2/4 antibodies (#MAB3552) were obtained from R&D Systems Europe, Lille, France • Bright-Glo Luciferase assay kit were purchased from Promega
All experiments were performed in triplicate, and were repeated at two separate times.

- binding of BMP-2 (BMP-2): more significant binding
- binding to immobilized BMP-4, comparison among fragments (BMP-4): most strongly
B1: fragment #786: Fc fusion protein of human RGM A amino acids 47-168 (protein)
chain: PCKILKCNSEFWSATSGSHAPASDDTPEFCAALRSYALCTRRTARTCRGDLAYHSAVHGIEDLMSQHNCSKDGPTSQPRLRTLPPAGDSQERSDSPEICHYEKSFHKHSATPNYTHCGLFGD
modifications: left off: small tags and cut ends; a dimerising Fc or GST
- binding to immobilized BMP-4 (BMP-4; detection anti-human-Fc or anti-Myc): Significant concentration-dependent binding
- effect on BMP-2-induced luciferase activity ([1]; combined with rhBMP-2 at 50 ng/ml, 24 h, listed as #786): dose-dependent inhibition; also recorded: inhibited the rhBMP-2-induced activity in a dose dependent fashion
- inhibition of the rhBMP-2-induced activity ([1]; compounds at 10 μg/ml, rhBMP-2 at 50 ng/ml): 88%
- equivalent dose for 50% of inhibition (ED50) ([1]; rhBMP-2 at 50 ng/ml): 0.1 µg/mL
